Test results published in US20040253234A1 (Kyowa Kirin, published 2004).
Substitutions are numbered along the chain they refer to.

What was measured:
[1] = molecular target: T1, C-terminus-biotin labeled compound 1 (an N-terminus peptide of FGF-8; SEQ ID NO:15) (human, C-terminus-biotin labeled); assay: BIAcore 2000, C-terminus-biotin labeled FGF-8 peptide on SA chip, antibody as analyte, RU compared
T1 construct: also called FGF-8 peptide
T1 peptide: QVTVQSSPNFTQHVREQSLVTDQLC
Experimental: In order to examine the activity of various anti-FGF-8 CDR-grafted antibodies obtained in the item 5 of Example 3 to bind to FGF-8 in more detail, activities of various anti-FGF-8 CDR-grafted antibodies to bind to FGF-8 were measured and compared as follows by using BIAcore 2000 (manufactured by BIACORE). The CHO/DG44-derived anti-FGF-8 chimeric antibody KM3034 obtained in the item 3(1) of Example 1 was used as a positive control.
Hereinbelow, HBS-EP (manufactured by Pharmacia) was used as the buffer solution for dilution of samples and during the measurement. First, a sensor tip SA (manufactured by BIACORE) was set, and 5 μl of a C-terminus-biotin labeled compound 1 (an N-terminus peptide of FGF-8; SEQ ID NO:15) prepared to a solution of 0.05 μg/ml was added thereto at a flow rate of 20μl/minute. Thereafter, the tip surface was washed by adding 5 μl of 10 mmol/l Glycine-HCl buffer (pH 1.5) continuously twice. Immobilized amount of the FGF-8 peptide was 35 RU.
To the FGF-8 peptide immobilized flow cell, 60 μl of each antibody solution was added at a flow rate of 20 μl/minute, and then the dissociation reaction was monitored for 3 minutes. After the dissociation reaction, the tip surface was regenerated by adding 20 μl of 10 mmol/l Glycine-HCl buffer (pH 1.5) continuously twice. This cycle was carried out for antibody solutions of various concentrations (50 to 1.85 μg/ml), and a sensorgram at each concentration was obtained. The sensorgram of each antibody was made into a sensorgram of specific reaction by subtracting a sensorgram obtained using a chimeric antibody KM871 for GD3 [Cancer Immunol. Immunother., 36, 373 (1993)] as a negative control.

[2] = molecular target: T2, FGF-8 (manufactured by R&D) (UniProt P55075-3 23-215, limits assumed); assay: cell-based or functional assay
T2 sequence (looked up): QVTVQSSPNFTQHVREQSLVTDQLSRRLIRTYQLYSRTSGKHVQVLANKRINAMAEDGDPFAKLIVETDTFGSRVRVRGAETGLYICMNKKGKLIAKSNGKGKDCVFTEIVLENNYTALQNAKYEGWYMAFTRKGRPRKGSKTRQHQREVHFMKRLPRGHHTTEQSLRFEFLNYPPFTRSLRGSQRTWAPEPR

[3] = molecular target: T3, BSA-compound 1 conjugate (human FGF-8 peptide Compound 1, SEQ ID NO:15, conjugated to bovine serum albumin) (human, conjugated to bovine serum albumin through SMCC); assay: ELISA, plate-coated BSA-compound 1 conjugate, anti-human IgG-peroxidase detection
T3 construct: The BSA carrier is not written as a chain
T3 peptide: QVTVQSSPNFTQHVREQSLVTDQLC
Experimental: (§1) The conjugate prepared in the above was dispensed at 50 μl/well into a 96 well plate for ELISA (manufactured by Greiner) at a concentration of 0.5 to 1.0 μg/ml and allowed to stand for adsorption overnight at 4° C. After washing with PBS, 1% BSA-containing PBS (BSA-PBS) was added at 100 μl/well and allowed for blocking of remaining active groups to react at room temperature for 1 hour. After washing each well with 0.05% Tween-containing PBS (Tween-PBS), culture supernatants of transformants or purified antibodies were added at 50 μl/well and allowed to react at room temperature for 1 hour. After the reaction, each well was washed with Tween-PBS and then a peroxidase-labeled goat anti-human IgG (H & L) antibody solution (manufactured by American Qualex) diluted 3,000 to 6,000-folds with BSA-PBS was added as a secondary antibody solution at 50 μl/well and allowed to react at room temperature for 1 hour. After the reaction and subsequent washing with Tween-PBS, an ABTS substrate solution [a solution prepared by dissolving 0.55 g of 2,2′-azinobis(3-ethylbenzothiazoline-6-sulfonic acid) ammonium in 1 L of 0.1 M citrate buffer (pH 4.2) and adding 1 μl/ml hydrogen peroxide just before use] was added at 50 μl/well for color development, and the reaction was stopped by adding 5% SDS solution at 50 µl/well. Thereafter, absorbance at 415 nm (OD415) was measured.
The activity of various anti-FGF-8 CDR-grafted antibodies obtained in the item 4 of Example 2 to bind to FGF-8 was measured by the ELISA described in the item 2(6) of Example 1. The YB2/0-derived anti-FGF-8 chimeric antibody KM3334 obtained in the item 3(2) of Example 1 was used as a positive control.

[4] = molecular target: T3, BSA-compound 1 conjugate (human FGF-8 …); assay: ELISA, plate-coated BSA-compound 1 conjugate, anti-human IgG-peroxidase detection; positive control
Experimental: as §1, with “After the reaction and subsequent washing with Tween-PBS, an ABTS substrate solution [a solution prepared by dissolving 0.55 g of 2,2′-azinobis(3-ethylbenzothiazoline-6-sulfonic acid) ammonium in 1 L of 0.1 M citrate buffer (pH 4.2) and adding 1 μl/ml hydrogen peroxide just before use] was added at 50 μl/well for color development, and the reaction was stopped by adding 5% SDS solution at 50 µl/well.” left out
The activity of various anti-FGF-8 CDR-grafted antibodies obtained in the item 4 of Example 2 to bind to FGF-8 was measured by the ELISA described in the item 2(6) of Example 1. […]

B1: anti-FGF-8 CDR-grafted antibody HV0LV3-1/CHO (antibody, V domains shown)
VH: QVQLVQSGAEVKKPGASVKVSCKASGYTFTDYYLNWVRQAPGQGLEWMGEIDPGSDSIYYNENLEGRVTITADTSTSTAYMELSSLRSEDTAVYYCARYGYSRYDVRFVYWGQGTLVTVSS
VL: DVVMTQSPLSLPVTPGEPASISCRSSQSLVHSNGRTYLEWYLQKPGQSPQVLIYKVSNRISGVPDRFSGSGSGTDFTLKISRVEAEDVGVYFCFQGSHVPYTFGQGTKVEIK
notes: CHO/DG44-derived; also called KM8036
binding result [1]: binds

B2: anti-FGF-8 CDR-grafted antibody HV0LV0/CHO (antibody, V domains shown)
VH: B1 VH
VL: B1 VL with V2I, V51L, F92Y
notes: CHO/DG44-derived, vector pKANTEX1334HV0LV0
binding result [1]: binds

B3: anti-FGF-8 CDR-grafted antibody HV0LV3-3/CHO (antibody, V domains shown)
VH: B1 VH
VL: B1 VL with V2I, T14S, P15L, F92Y
FGF-8 neutralization activity (FGF-8-dependent growth of SC-3 cells) [2]: ~0.5 fold of the activity of KM3034

B4: anti-FGF-8 CDR-grafted antibody HV0LV4-3/CHO (antibody, V domains shown)
VH: B1 VH
VL: B1 VL with V2I, T14S, P15L
notes: CHO/DG44-derived; also called KM8035
FGF-8 neutralization activity (FGF-8-dependent growth of SC-3 cells) [2]: ~0.5 fold of the activity of KM3034
binding result [1]: binds

B5: anti-FGF-8 CDR-grafted antibody HV0LV6/CHO (antibody, V domains shown)
VH: B1 VH
VL: B1 VL with T14S, P15L, Q50K
notes: CHO/DG44-derived, vector pKANTEX1334HV0LV6; also called KM8034
binding result [1]: binds

B6: anti-FGF-8 CDR-grafted antibody HV0LV6 (antibody, V domains shown)
VH: B1 VH
VL: B1 VL with T14S, P15L, Q50K
notes: YB2/0-derived, vector pKANTEX1334HV0LV6 (from pKANTEX93, human constant regions); also called KM8037
binding result [3]: binds

B7: anti-FGF-8 CDR-grafted antibody HV0LV0 (antibody, V domains shown)
VH: B1 VH
VL: B1 VL with V2I, V51L, F92Y
notes: YB2/0-derived, vector pKANTEX1334HV0LV0 (from pKANTEX93, human constant regions)
binding result [3]: binds

B8: anti-FGF-8 CDR-grafted antibody HV6LV6 (antibody, V domains shown)
VH: B1 VH with K12A, K13R, A40R, P41S, M48I, Y95F
VL: B1 VL with T14S, P15L, Q50K
notes: YB2/0-derived, vector pKANTEX1334HV6LV6 (from pKANTEX93, human constant regions)
binding result [3]: binds

B9: anti-FGF-8 chimeric antibody KM3034 (antibody, V domains shown)
VH: QVQLQQSGAEVARPGASVKLSCKASGYTFTDYYLNWVKQRSGQGLEWIGEIDPGSDSIYYNENLEGRATLTADKSSSTAYMQLNSLTSEDSAVYFCARYGYSRYDVRFVYWGQGTLVTVST
VL: B1 VL with V3L, S7T, T14S, P15L, E17D, P18Q, Q50K, V88L, Q105G, V109L
notes: Human chimeric antibody with human gamma1 CH and human kappa CL (vector pKANTEX1334, from pKANTEX93), expressed in CHO/DG44 cells; also called CHO/DG44-derived anti-FGF-8 chimeric antibody
binding result [1]: binds

B10: anti-FGF-8 chimeric antibody KM3334 (antibody, V domains shown)
VH: B9 VH
VL: B1 VL with V3L, S7T, T14S, P15L, E17D, P18Q, Q50K, V88L, Q105G, V109L
notes: Same expression vector pKANTEX1334 as KM3034 (human gamma1 / kappa constant regions), expressed in YB2/0 cells; also called KiM3334; YB2/0-derived anti-FGF-8 chimeric antibody
binding result [4]: binds
